The results in this text go back to US20040126856A1, “Factor ixa: factor Vllla interaction and methods therefor” (priority 2004, published 2004).

As a reminder, the kcat is the maximal rate divided by the concentration of active sites. By Km is commonly meant the concentration of substrate that gives half-maximal velocity.

In data set [1] the target is T1, A2 subunit of factor VIIIa (Homo sapiens, UniProt P00451).
T1 construct: cleaved by thrombin at R372-S373, R740-S741, and R1689-S1690 to yield factor VIIIa
T1 sequence (P00451 392-759): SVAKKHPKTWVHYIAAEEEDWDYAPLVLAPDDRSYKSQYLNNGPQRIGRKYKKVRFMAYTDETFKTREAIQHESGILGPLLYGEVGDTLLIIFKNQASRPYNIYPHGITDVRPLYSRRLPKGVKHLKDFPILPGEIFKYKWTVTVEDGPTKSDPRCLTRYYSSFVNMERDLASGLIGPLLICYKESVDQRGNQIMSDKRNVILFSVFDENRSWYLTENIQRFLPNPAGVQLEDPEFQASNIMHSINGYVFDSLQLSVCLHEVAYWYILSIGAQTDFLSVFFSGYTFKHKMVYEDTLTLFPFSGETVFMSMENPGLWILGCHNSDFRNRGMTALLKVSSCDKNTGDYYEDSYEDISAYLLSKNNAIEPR
In words: Fluorescence quenching of the dansyl moiety in dEGR-IXa by the A2 subunit. The following applies: for Change in dansyl fluorescence emission intensity on titration with A2 subunit: 100 μM PL (FIG. 4). The data set is classed as binding. As for the experimental part:
Fluorescence Quenching of the Dansyl Moiety in dEGR-IXa by the A2 Subunit.
The effect of the A2 subunit on the emission intensity of the dansyl moiety in each dEGR-IXa protein was determined using the SLM AB2 spectrofluorometer. Each reaction mixture contained 220 nM dEGR-IXa in 20 mM Hepes, pH 7.2, 100 mM NaCl, 5 mM CaCl2, 0.01% Tween, 200 μg/ml BSA and 100 μM PL vesicles. The excitation wavelength was 340 nm (slit width, 8 nm) and the emission wavelength was 540 nm (slit width; 8 nm). First, blank values (in triplicate) were obtained for the buffer containing PL. dEGR-IXa was then added and the emission intensity in the absence of the A2 subunit was recorded. Each reaction mixture was subsequently titrated with the A2 subunit and the emission readings (in triplicate) were obtained at each time point. The fluorescence emission intensity at each point was corrected for increases in the reaction volume prior to analysis of the data. […] Data are presented as F/F0 where F0 is the emission intensity in the absence of A2 subunit and F is the intensity at a given A2 subunit concentration.

In another data set the target is T2, factor X (Homo sapiens, UniProt P00742).
T2 construct: Normal plasma factor IX (IXNP) and factor X was isolated as previously described; from tissue; host or cells: normal plasma
In words: Activation of factor X by factor IXa proteins in the presence of only Ca2+ and PL (absence of factor VIIIa). The data set is classed as biochemical. Conditions: 20 nM factor IXa; for kcat: 5 mM CaCl2, absence of factor VIIIa; for Km: 5 mM CaCl2, factor X 25 nM to 3 μM, absence of factor VIIIa. As for the experimental part:
Activation of Factor X by Each Factor IXa Protein in the Presence of Only Ca^2+ and PL.
For these studies, each factor IX was activated with factor XIa/Ca^2+ as described above. For factor X activation studies, the concentration of factor IXa was kept at 20 nM and the buffer used was TBS/BSA (TBS with […] BSA) containing 5 mM CaCl2. The concentrations of PL used were 10, 25, 50, and 100 μM in different sets of experiments. The concentration of factor X at each PL concentration ranged from 25 nM to 3 μM. The activations were carried out for 5-15 min and the amount of factor Xa generated was measured by hydrolysis of S-2222 as described previously (Mather and Bajaj, 1999; Mather et al., 1997). The Km and kcat values were obtained using the program GraFit from Erithacus Software.

T2 sequence (P00742 183-488 limits assumed): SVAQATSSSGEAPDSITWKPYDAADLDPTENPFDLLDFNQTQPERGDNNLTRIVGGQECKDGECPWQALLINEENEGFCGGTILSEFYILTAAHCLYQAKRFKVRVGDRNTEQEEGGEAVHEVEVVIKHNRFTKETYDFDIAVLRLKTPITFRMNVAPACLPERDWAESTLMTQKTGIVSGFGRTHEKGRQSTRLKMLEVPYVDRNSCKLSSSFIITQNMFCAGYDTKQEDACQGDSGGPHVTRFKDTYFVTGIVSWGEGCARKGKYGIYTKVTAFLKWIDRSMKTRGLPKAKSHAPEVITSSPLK
T2 sequence (P00742 41-179 limits assumed): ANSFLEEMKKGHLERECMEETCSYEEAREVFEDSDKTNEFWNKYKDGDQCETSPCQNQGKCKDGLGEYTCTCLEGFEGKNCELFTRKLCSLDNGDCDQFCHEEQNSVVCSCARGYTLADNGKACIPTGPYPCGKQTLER

Regarding “IXaR333Q: activated factor IX point mutant in which Arg333 is replaced by Gln”, in data set [1] (220 nM dEGR-IXa protein), the “Change in dansyl fluorescence emission intensity on titration with A2 subunit” value was “little if any change”. In addition, the catalytic constant (kcat) in the data set with factor X (PL 10 μM) came to 0.0002 s⁻¹; with factor X (PL 25 μM), 0.0003 s⁻¹; in the data set with factor X (PL 50 μM), 0.0005 s⁻¹; in the data set with factor X (PL 100 μM), 0.000667 s⁻¹. Further, the Michaelis constant (Km) with factor X (PL 10 μM) turned out to be 0.11 µM; in the data set with factor X (PL 25 μM), 0.18 µM; with factor X (PL 50 μM), 0.23 µM; with factor X (PL 100 μM), 0.61 µM.
Turning to “IXaWT: activated recombinant wild-type factor IX (IXWT)”, the “Change in dansyl fluorescence emission intensity on titration with A2 subunit” value in data set [1] (220 nM dEGR-IXa protein) is recorded as “dose-dependent decrease”. Moreover, the “Plateau value for F/F0” value in data set [1] (bimolecular association model fit, 220 nM dEGR-IXa protein, 100 μM PL) was determined as 0.59±0.05. For the same substance, in data set [1] (bimolecular association model fit, read-out: Apparent KdA2 from fluorescence quenching), the Kd is approximately 100 nM. For the same substance, the kcat came to 0.000167 s⁻¹ with factor X (PL 10 μM), 0.0002 s⁻¹ with factor X (PL 25 μM), 0.0004 s⁻¹ with factor X (PL 50 μM) and 0.000633 s⁻¹ with factor X (PL 100 μM). Moreover, the Km with factor X (PL 10 μM) is 0.09 µM; with factor X (PL 25 μM) it was 0.12 µM; with factor X (PL 50 μM), 0.24 µM; with factor X (PL 100 μM), 0.57 µM.
